T1: DQA1*0102/DQB1*0602 (human, UniProt P01920 33-230, limits assumed)
T1 construct: human MHC class II allotype
T1 MHC II alpha: not shown
T1 MHC II beta: not shown

B1: HDM28 (peptide)
peptide: KAVDEAVAAIEKS
B2: HDM11 (peptide)
peptide: IGIKDLDAFRHYD
B3: HDM29A (peptide)
peptide: ETFDPMKVPDHSDK
B4: HDM12 (peptide)
peptide: KDLDAFRHYDGRT
B5: HDM27 (peptide)
peptide: AKIEIKASLDGLE
B6: HDM16A (peptide)
peptide: RNSWDTNWGDNGYG
B7: HDM29 (peptide)
peptide: ETFDPMKVPDHSD
B8: HDM13 (peptide)
peptide: RTIIQRDNGYQPNY
notes: solubility test: NO
B9: HDM17 (peptide)
peptide: NSVNVPSELDLRSLRT
B10: HDM30 (peptide)
peptide: DKFERHIGIIDLK
B11: HDM35 (peptide)
peptide: RGLKQMKRVGDAN

Each binder was assayed against T2, HLA-DRB1*0101 (human) (assay: competitive MHC class II binding assay).
T2 construct: human MHC class II allotype

Binder	binding result
B1	no binding
B2	no binding
B3	no binding
B4	no binding
B5	no binding
B6	no binding
B7	no binding
B8	no binding
B9	no binding

What follows are binders tested against T3, HLA-DRB1*0301 (human) (assay: competitive MHC class II binding assay).
T3 construct: human MHC class II allotype

Binder	binding result
B1	no binding
B2	no binding
B3	no binding
B4	no binding
B5	no binding
B6	no binding
B7	no binding
B8	no binding
B9	no binding

The binders below were run against T4, HLA-DRB1*0401 (human) (assay: competitive MHC class II binding assay).
T4 construct: human MHC class II allotype

Binder	binding result
B1	no binding
B2	no binding
B3	no binding
B4	no binding
B5	no binding
B6	no binding
B7	no binding
B8	no binding
B9	no binding

The binders below were run against T5, HLA-DRB1*0701 (human) (assay: competitive MHC class II binding assay).
T5 construct: human MHC class II allotype

Binder	binding result
B1	no binding
B2	no binding
B3	no binding
B4	no binding
B5	no binding
B6	no binding
B7	no binding
B8	no binding
B9	no binding

The binders below were run against T6, HLA-DRB1*1101 (human) (assay: competitive MHC class II binding assay).
T6 construct: human MHC class II allotype

Binder	binding result
B1	no binding
B2	no binding
B3	no binding
B4	no binding
B5	no binding
B6	no binding
B7	no binding
B8	no binding
B9	no binding

What follows are binders tested against T7, HLA-DRB1*1301 (human) (assay: competitive MHC class II binding assay).
T7 construct: human MHC class II allotype

Binder	binding result
B1	no binding
B2	no binding
B3	no binding
B4	no binding
B5	no binding
B6	no binding
B7	no binding
B8	no binding
B9	no binding

What follows are binders tested against T8, HLA-DRB1*1501 (human) (assay: competitive MHC class II binding assay).
T8 construct: human MHC class II allotype

Binder	binding result
B1	no binding
B2	no binding
B3	no binding
B4	no binding
B5	no binding
B6	no binding
B7	no binding
B8	no binding
B9	no binding

Target: T1, DQA1*0102/DQB1*0602
Assay: competitive MHC class II binding assay

Binder	binding result
B1	no binding
B2	no binding
B3	no binding
B4	no binding
B5	no binding
B6	no binding
B7	no binding
B8	no binding
B9	no binding

What follows are binders tested against T5, HLA-DRB1*0701 (assay: competitive MHC class II binding assay; competitor: control peptide Influenza haemagglutinin 307-319;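 on ratio of IC50 to that of the control peptide: each peptide was tested for its capacity to displace a known reference binder from human MHC class II allotypes, and its IC50 is expressed relative to that of the reference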).

Binder	ratio of IC50 to that of the control peptide [ratio]
B10	6.2

Each binder was assayed against T6, HLA-DRB1*1101 in the same assay as above.

Binder	ratio of IC50 to that of the control peptide [ratio]
B11	1.26

— US20100260805A1 (CIRCASSIA, published 2010)
